Data published in publication PMC4046112, “eIF2B is a decameric guanine nucleotide exchange factor with a γ2ε2 tetrameric core” (Nature Communications, 2014).

T1: eIF2Bγ, FLAG-tagged (γ-subunit of yeast eIF2B) (S. cerevisiae, UniProt P09032 1-578)
T1 construct: eIF2B gamma subunit (GCD1), S. cerevisiae; Bait of all eIF2B complex purifications; also called GCD1-FLAG2-His6; source: S. cerevisiae strains overexpressing eIF2B subunits, purified (anti-FLAG resin, FLAG peptide elution); not shown: FLAG2, C-terminal, kept
T1 sequence (looked up): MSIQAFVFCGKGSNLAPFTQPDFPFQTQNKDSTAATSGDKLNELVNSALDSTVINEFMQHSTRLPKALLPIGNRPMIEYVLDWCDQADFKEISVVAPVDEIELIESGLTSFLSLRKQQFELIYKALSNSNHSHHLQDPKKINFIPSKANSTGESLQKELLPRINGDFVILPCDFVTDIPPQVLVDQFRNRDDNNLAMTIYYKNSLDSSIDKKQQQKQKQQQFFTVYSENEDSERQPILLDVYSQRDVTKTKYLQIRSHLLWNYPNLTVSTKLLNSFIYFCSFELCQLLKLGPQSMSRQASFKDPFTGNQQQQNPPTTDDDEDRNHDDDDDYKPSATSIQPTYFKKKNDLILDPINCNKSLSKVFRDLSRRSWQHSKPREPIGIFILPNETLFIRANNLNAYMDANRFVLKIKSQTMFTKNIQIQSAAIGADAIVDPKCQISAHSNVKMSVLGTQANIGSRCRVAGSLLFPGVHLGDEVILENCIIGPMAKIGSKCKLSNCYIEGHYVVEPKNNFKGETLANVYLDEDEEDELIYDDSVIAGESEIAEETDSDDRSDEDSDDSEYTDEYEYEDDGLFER

B1: eIF2Bε (ε-subunit of yeast eIF2B, untagged) (natural protein, S. cerevisiae, UniProt P32501 1-712, looked up)
chain: MAGKKGQKKSGLGNHGKNSDMDVEDRLQAVVLTDSYETRFMPLTAVKPRCLLPLANVPLIEYTLEFLAKAGVHEVFLICSSHANQINDYIENSKWNLPWSPFKITTIMSPEARCTGDVMRDLDNRGIITGDFILVSGDVLTNIDFSKMLEFHKKMHLQDKDHISTMCLSKASTYPKTRTIEPAAFVLDKSTSRCIYYQDLPLPSSREKTSIQIDPELLDNVDEFVIRNDLIDCRIDICTSHVPLIFQENFDYQSLRTDFVKGVISSDILGKHIYAYLTDEYAVRVESWQTYDTISQDFLGRWCYPLVLDSNIQDDQTYSYESRHIYKEKDVVLAQSCKIGKCTAIGSGTKIGEGTKIENSVIGRNCQIGENIRIKNSFIWDDCIIGNNSIIDHSLIASNATLGSNVRLNDGCIIGFNVKIDDNMDLDRNTKISASPLKNAGSRMYDNESNEQFDQDLDDQTLAVSIVGDKGVGYIYESEVSDDEDSSTEACKEINTLSNQLDELYLSDDSISSATKKTKKRRTMSVNSIYTDREEIDSEFEDEDFEKEGIATVERAMENNHDLDTALLELNTLRMSMNVTYHEVRIATITALLRRVYHFIATQTLGPKDAVVKVFNQWGLLFKRQAFDEEEYIDLMNIIMEKIVEQSFDKPDLILFSALVSLYDNDIIEEDVIYKWWDNVSTDPRYDEVKKLTVKWVEWLQNADEESSSEEE
notes: eIF2B epsilon subunit (GCD6), S. cerevisiae; Subunit of the purified eIF2B complexes, written alone for the subunit pairs; also called eIF2B ε-subunit; ε/GCD6
B2: eIF2Bα (α-subunit of yeast eIF2B) (natural protein, S. cerevisiae, UniProt P14741 1-305, looked up)
chain: MSEFNITETYLRFLEEDTEMTMPIAAIEALVTLLRIKTPETAAEMINTIKSSTEELIKSIPNSVSLRAGCDIFMRFVLRNLHLYGDWENCKQHLIENGQLFVSRAKKSRNKIAEIGVDFIADDDIILVHGYSRAVFSLLNHAANKFIRFRCVVTESRPSKQGNQLYTLLEQKGIPVTLIVDSAVGAVIDKVDKVFVGAEGVAESGGIINLVGTYSVGVLAHNARKPFYVVTESHKFVRMFPLSSDDLPMAGPPLDFTRRTDDLEDALRGPTIDYTAQEYITALITDLGVLTPSAVSEELIKMWYD
notes: eIF2B alpha subunit (GCN3), S. cerevisiae; Subunit of the purified eIF2B complex, written alone for the subunit pairs; also called eIF2B α-subunit; GCN3

Target: T1, eIF2Bγ, FLAG-tagged (γ-subunit of yeast …)
Assay: label-free quantitative proteomics (iBAQ) of the purified complex; eIF2-eIF2B complex purified after phosphorylation of eIF2, trypsin digest, nanoLC-MS/MS, iBAQ intensities compared; eIF2B subunits relative to FLAG-tagged γ (set to 1), eIF2 subunits relative to α
Conditions: both partners purified

Binder | stoichiometry N
B1 | 0.76
B2 | 1.12
